Data: patent US20250270305A1 (OSAKA UNIVERSITY, published 2025)

Tests used:
[1] = molecular target: T1, recombinant human Netrin-4 (human, UniProt Q9HB63 19-628, limits assumed); experiment: ELISA screening of hybridoma culture supernatant
T1 sequence: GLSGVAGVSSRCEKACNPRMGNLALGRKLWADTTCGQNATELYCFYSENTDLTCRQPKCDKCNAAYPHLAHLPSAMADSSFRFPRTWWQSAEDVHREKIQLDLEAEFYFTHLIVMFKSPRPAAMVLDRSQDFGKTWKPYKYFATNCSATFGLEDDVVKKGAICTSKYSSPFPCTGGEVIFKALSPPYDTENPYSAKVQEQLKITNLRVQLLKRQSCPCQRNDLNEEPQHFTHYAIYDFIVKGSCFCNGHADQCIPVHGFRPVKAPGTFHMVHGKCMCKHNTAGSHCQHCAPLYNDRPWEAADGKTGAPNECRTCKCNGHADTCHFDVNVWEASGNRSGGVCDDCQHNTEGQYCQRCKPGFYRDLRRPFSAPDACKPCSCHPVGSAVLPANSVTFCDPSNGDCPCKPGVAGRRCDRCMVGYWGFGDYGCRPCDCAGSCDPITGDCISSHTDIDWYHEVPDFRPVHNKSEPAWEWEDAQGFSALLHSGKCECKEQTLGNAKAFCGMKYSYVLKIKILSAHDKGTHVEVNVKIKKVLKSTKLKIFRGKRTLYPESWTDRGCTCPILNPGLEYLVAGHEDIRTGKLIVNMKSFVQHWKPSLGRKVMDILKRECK
From the text: (§1) Four mice were immunized with the epitope peptide. After four immunizations, the blood was collected to determine the antibody titers using ELISA against recombinant human Netrin-4 and TGGEVIFKALS peptide. Mouse lymphocytes with increased antibody titers were fused with myeloma cells, and cultured in HAT medium to produce hybridomas. About ten days after cell fusion, antibody production in the culture supernatant was screened by ELISA (against recombinant human Netrin-4 and TGGEVIFKALS peptide), and 95 positive wells were selected. Primary cloning was then performed by limiting dilution, followed by screening by ELISA (against recombinant human Netrin-4 and TGGEVIFKALS peptide). Secondary cloning was then performed by limiting dilution, followed by screening by ELISA (against recombinant human Netrin-4 and TGGEVIFKALS peptide). A single clone was selected. The selected clone was expanded, and cultured at a high density in a serum-free medium. The culture medium was collected and purified on a protein A column to produce IgG. Purity was measured using AKTA-FPLC, and the titer was measured by ELISA. IgG was further purified with low endotoxin levels and used for the subsequent experiments.

[2] = molecular target: T2, TGGEVIFKALS peptide (amino acid residues 192 to 202 of human Netrin-4) (human); experiment: ELISA screening of hybridoma culture supernatant
T2 construct: The immunogen was C-Ahx-TGGEVIFKALS linked to bovine thyroglobulin; The ELISA antigen is named only as the TGGEVIFKALS peptide
T2 peptide: TGGEVIFKALS
From the text: as §1

B1: anti-Netrin-4 monoclonal antibody produced by the hybridoma cell line Human Netrin-4 (192-202)-6A1 (Accession No. NITE BP-03603) (antibody, V domains shown)
VH: QVQLHQSGPELVRPGASVTLSCKASGYTFTDYEMHWVKQTPVHGLEWIGAIDPETGDTVYNQKFKGKATLTADKSSSTAYMELSSLTSEDSAVYYCVDGFSDHYWGQGTTLTVSS
VL: VLVLTQTPLSLPVRLGDRASISCRSSQSLVHSSGNTFLHWYLQKPGQSPKLLIYKVSSRFSGVPDRFSGSGSGTDFTLKISRMEAEDLGVYFCSQSTHIPYTFGGGTKLEIKR
notes: In the ELISA screens the antibody was hybridoma culture supernatant
What does the source list for B1?
binding result [1]: binds; binding result [2]: binds
